The record followed here is PMC7205012 (Neuron, 2019).

The term stoichiometry N denotes a count of units in the complex or per binding partner.

The series deals with the molecule itself. Put plainly: cryo-EM structure.

B1: wild type human TRPA1 (transient receptor potential channel subfamily A member 1) (natural protein, UniProt O75762 1-1119, looked up)
chain: MKRSLRKMWRPGEKKEPQGVVYEDVPDDTEDFKESLKVVFEGSAYGLQNFNKQKKLKRCDDMDTFFLHYAAAEGQIELMEKITRDSSLEVLHEMDDYGNTPLHCAVEKNQIESVKFLLSRGANPNLRNFNMMAPLHIAVQGMNNEVMKVLLEHRTIDVNLEGENGNTAVIIACTTNNSEALQILLKKGAKPCKSNKWGCFPIHQAAFSGSKECMEIILRFGEEHGYSRQLHINFMNNGKATPLHLAVQNGDLEMIKMCLDNGAQIDPVEKGRCTAIHFAATQGATEIVKLMISSYSGSVDIVNTTDGCHETMLHRASLFDHHELADYLISVGADINKIDSEGRSPLILATASASWNIVNLLLSKGAQVDIKDNFGRNFLHLTVQQPYGLKNLRPEFMQMQQIKELVMDEDNDGCTPLHYACRQGGPGSVNNLLGFNVSIHSKSKDKKSPLHFAASYGRINTCQRLLQDISDTRLLNEGDLHGMTPLHLAAKNGHDKVVQLLLKKGALFLSDHNGWTALHHASMGGYTQTMKVILDTNLKCTDRLDEDGNTALHFAAREGHAKAVALLLSHNADIVLNKQQASFLHLALHNKRKEVVLTIIRSKRWDECLKIFSHNSPGNKCPITEMIEYLPECMKVLLDFCMLHSTEDKSCRDYYIEYNFKYLQCPLEFTKKTPTQDVIYEPLTALNAMVQNNRIELLNHPVCKEYLLMKWLAYGFRAHMMNLGSYCLGLIPMTILVVNIKPGMAFNSTGIINETSDHSEILDTTNSYLIKTCMILVFLSSIFGYCKEAGQIFQQKRNYFMDISNVLEWIIYTTGIIFVLPLFVEIPAHLQWQCGAIAVYFYWMNFLLYLQRFENCGIFIVMLEVILKTLLRSTVVFIFLLLAFGLSFYILLNLQDPFSSPLLSIIQTFSMMLGDINYRESFLEPYLRNELAHPVLSFAQLVSFTIFVPIVLMNLLIGLAVGDIAEVQKHASLKRIAMQVELHTSLEKKLPLWFLRKVDQKSTIVYPNKPRSGGMLFHIFCFLFCTGEIRQEIPNADKSLEMEILKQKYRLKDLTFLLEKQHELIKLIIQKMEIISETEDDDSHCSFQDRFKKEQMEQRNSRWNTVLRAVKAKTHHLEP
modifications: C621 covalently bound to JT010 (TRPA1_(WT-JT010)) or to BITC (TRPA1_(WT-BITC)); N747 glycosylated (two N-acetylglucosamine)
Regarding B1, the “stoichiometry N” value is 4.

B2: human TRPA1 C621S (natural protein, UniProt O75762 1-1119, looked up)
chain: MKRSLRKMWRPGEKKEPQGVVYEDVPDDTEDFKESLKVVFEGSAYGLQNFNKQKKLKRCDDMDTFFLHYAAAEGQIELMEKITRDSSLEVLHEMDDYGNTPLHCAVEKNQIESVKFLLSRGANPNLRNFNMMAPLHIAVQGMNNEVMKVLLEHRTIDVNLEGENGNTAVIIACTTNNSEALQILLKKGAKPCKSNKWGCFPIHQAAFSGSKECMEIILRFGEEHGYSRQLHINFMNNGKATPLHLAVQNGDLEMIKMCLDNGAQIDPVEKGRCTAIHFAATQGATEIVKLMISSYSGSVDIVNTTDGCHETMLHRASLFDHHELADYLISVGADINKIDSEGRSPLILATASASWNIVNLLLSKGAQVDIKDNFGRNFLHLTVQQPYGLKNLRPEFMQMQQIKELVMDEDNDGCTPLHYACRQGGPGSVNNLLGFNVSIHSKSKDKKSPLHFAASYGRINTCQRLLQDISDTRLLNEGDLHGMTPLHLAAKNGHDKVVQLLLKKGALFLSDHNGWTALHHASMGGYTQTMKVILDTNLKCTDRLDEDGNTALHFAAREGHAKAVALLLSHNADIVLNKQQASFLHLALHNKRKEVVLTIIRSKRWDECLKIFSHNSPGNKSPITEMIEYLPECMKVLLDFCMLHSTEDKSCRDYYIEYNFKYLQCPLEFTKKTPTQDVIYEPLTALNAMVQNNRIELLNHPVCKEYLLMKWLAYGFRAHMMNLGSYCLGLIPMTILVVNIKPGMAFNSTGIINETSDHSEILDTTNSYLIKTCMILVFLSSIFGYCKEAGQIFQQKRNYFMDISNVLEWIIYTTGIIFVLPLFVEIPAHLQWQCGAIAVYFYWMNFLLYLQRFENCGIFIVMLEVILKTLLRSTVVFIFLLLAFGLSFYILLNLQDPFSSPLLSIIQTFSMMLGDINYRESFLEPYLRNELAHPVLSFAQLVSFTIFVPIVLMNLLIGLAVGDIAEVQKHASLKRIAMQVELHTSLEKKLPLWFLRKVDQKSTIVYPNKPRSGGMLFHIFCFLFCTGEIRQEIPNADKSLEMEILKQKYRLKDLTFLLEKQHELIKLIIQKMEIISETEDDDSHCSFQDRFKKEQMEQRNSRWNTVLRAVKAKTHHLEP
With B2, the “stoichiometry N” value worked out at 4.
